B1: WT Li33 (Table 11) (antibody, V domains shown)
VH: EVQLLESGGGLVQPGGSLRLSCAASGFTFSIYPMFWVRQAPGKGLEWVSWIGPSGGITKYADSVKGRFTISRDNSKNTLYLQMNSLRAEDTATYYCAREGHNDWYFDLWGRGTLVTVSS
VL: DIQMTQSPGTLSLSPGERATLSCRASQSVSSYLAWYQQKPGQAPRLLIYDASNRATGIPARFSGSGSGTEFTLTISSLQSEDFAVYYCQQYDKWPLTFGGGTKVEIKR
B2: Li33 variant I57L (SEQ ID NO:163) (antibody, V domains shown)
VH: EVQLLESGGGLVQPGGSLRLSCAASGFTFSIYPMFWVRQAPGKGLEWVSWIGPSGGLTKYADSVKGRFTISRDNSKNTLYLQMNSLRAEDTATYYCAREGHNDWYFDLWGRGTLVTVSS
VL: DIQMTQSPGTLSLSPGERATLSCRASQSVSSYLAWYQQKPGQAPRLLIYDASNRATGIPARFSGSGSGTEFTLTISSLQSEDFAVYYCQQYDKWPLTFGGGTKVEIKR
notes: unchanged chain from WT Li33
B3: Li33 variant I57H (SEQ ID NO:162) (antibody, V domains shown)
VH: EVQLLESGGGLVQPGGSLRLSCAASGFTFSIYPMFWVRQAPGKGLEWVSWIGPSGGHTKYADSVKGRFTISRDNSKNTLYLQMNSLRAEDTATYYCAREGHNDWYFDLWGRGTLVTVSS
VL: DIQMTQSPGTLSLSPGERATLSCRASQSVSSYLAWYQQKPGQAPRLLIYDASNRATGIPARFSGSGSGTEFTLTISSLQSEDFAVYYCQQYDKWPLTFGGGTKVEIKR
notes: unchanged chain from WT Li33
B4: Li33 variant P53L (SEQ ID NO:151) (antibody, V domains shown)
VH: EVQLLESGGGLVQPGGSLRLSCAASGFTFSIYPMFWVRQAPGKGLEWVSWIGLSGGITKYADSVKGRFTISRDNSKNTLYLQMNSLRAEDTATYYCAREGHNDWYFDLWGRGTLVTVSS
VL: DIQMTQSPGTLSLSPGERATLSCRASQSVSSYLAWYQQKPGQAPRLLIYDASNRATGIPARFSGSGSGTEFTLTISSLQSEDFAVYYCQQYDKWPLTFGGGTKVEIKR
notes: unchanged chain from WT Li33
B5: Li33 variant I57Y (SEQ ID NO:182) (antibody, V domains shown)
VH: EVQLLESGGGLVQPGGSLRLSCAASGFTFSIYPMFWVRQAPGKGLEWVSWIGPSGGYTKYADSVKGRFTISRDNSKNTLYLQMNSLRAEDTATYYCAREGHNDWYFDLWGRGTLVTVSS
VL: DIQMTQSPGTLSLSPGERATLSCRASQSVSSYLAWYQQKPGQAPRLLIYDASNRATGIPARFSGSGSGTEFTLTISSLQSEDFAVYYCQQYDKWPLTFGGGTKVEIKR
notes: unchanged chain from WT Li33
B6: Li33 variant I57S (SEQ ID NO:183) (antibody, V domains shown)
VH: EVQLLESGGGLVQPGGSLRLSCAASGFTFSIYPMFWVRQAPGKGLEWVSWIGPSGGSTKYADSVKGRFTISRDNSKNTLYLQMNSLRAEDTATYYCAREGHNDWYFDLWGRGTLVTVSS
VL: DIQMTQSPGTLSLSPGERATLSCRASQSVSSYLAWYQQKPGQAPRLLIYDASNRATGIPARFSGSGSGTEFTLTISSLQSEDFAVYYCQQYDKWPLTFGGGTKVEIKR
notes: unchanged chain from WT Li33
B7: Li33 variant I57N (SEQ ID NO:161) (antibody, V domains shown)
VH: EVQLLESGGGLVQPGGSLRLSCAASGFTFSIYPMFWVRQAPGKGLEWVSWIGPSGGNTKYADSVKGRFTISRDNSKNTLYLQMNSLRAEDTATYYCAREGHNDWYFDLWGRGTLVTVSS
VL: DIQMTQSPGTLSLSPGERATLSCRASQSVSSYLAWYQQKPGQAPRLLIYDASNRATGIPARFSGSGSGTEFTLTISSLQSEDFAVYYCQQYDKWPLTFGGGTKVEIKR
notes: unchanged chain from WT Li33
B8: Li33 variant I57V (SEQ ID NO:185) (antibody, V domains shown)
VH: EVQLLESGGGLVQPGGSLRLSCAASGFTFSIYPMFWVRQAPGKGLEWVSWIGPSGGVTKYADSVKGRFTISRDNSKNTLYLQMNSLRAEDTATYYCAREGHNDWYFDLWGRGTLVTVSS
VL: DIQMTQSPGTLSLSPGERATLSCRASQSVSSYLAWYQQKPGQAPRLLIYDASNRATGIPARFSGSGSGTEFTLTISSLQSEDFAVYYCQQYDKWPLTFGGGTKVEIKR
notes: unchanged chain from WT Li33
B9: Li33 variant I57F (SEQ ID NO:164) (antibody, V domains shown)
VH: EVQLLESGGGLVQPGGSLRLSCAASGFTFSIYPMFWVRQAPGKGLEWVSWIGPSGGFTKYADSVKGRFTISRDNSKNTLYLQMNSLRAEDTATYYCAREGHNDWYFDLWGRGTLVTVSS
VL: DIQMTQSPGTLSLSPGERATLSCRASQSVSSYLAWYQQKPGQAPRLLIYDASNRATGIPARFSGSGSGTEFTLTISSLQSEDFAVYYCQQYDKWPLTFGGGTKVEIKR
notes: unchanged chain from WT Li33
B10: Li33 variant I57G (SEQ ID NO:159) (antibody, V domains shown)
VH: EVQLLESGGGLVQPGGSLRLSCAASGFTFSIYPMFWVRQAPGKGLEWVSWIGPSGGGTKYADSVKGRFTISRDNSKNTLYLQMNSLRAEDTATYYCAREGHNDWYFDLWGRGTLVTVSS
VL: DIQMTQSPGTLSLSPGERATLSCRASQSVSSYLAWYQQKPGQAPRLLIYDASNRATGIPARFSGSGSGTEFTLTISSLQSEDFAVYYCQQYDKWPLTFGGGTKVEIKR
notes: unchanged chain from WT Li33
B11: Li33 variant I57M (SEQ ID NO:160) (antibody, V domains shown)
VH: EVQLLESGGGLVQPGGSLRLSCAASGFTFSIYPMFWVRQAPGKGLEWVSWIGPSGGMTKYADSVKGRFTISRDNSKNTLYLQMNSLRAEDTATYYCAREGHNDWYFDLWGRGTLVTVSS
VL: DIQMTQSPGTLSLSPGERATLSCRASQSVSSYLAWYQQKPGQAPRLLIYDASNRATGIPARFSGSGSGTEFTLTISSLQSEDFAVYYCQQYDKWPLTFGGGTKVEIKR
notes: unchanged chain from WT Li33
B12: Li33 variant I57T (SEQ ID NO:186) (antibody, V domains shown)
VH: EVQLLESGGGLVQPGGSLRLSCAASGFTFSIYPMFWVRQAPGKGLEWVSWIGPSGGTTKYADSVKGRFTISRDNSKNTLYLQMNSLRAEDTATYYCAREGHNDWYFDLWGRGTLVTVSS
VL: DIQMTQSPGTLSLSPGERATLSCRASQSVSSYLAWYQQKPGQAPRLLIYDASNRATGIPARFSGSGSGTEFTLTISSLQSEDFAVYYCQQYDKWPLTFGGGTKVEIKR
notes: unchanged chain from WT Li33
B13: Li33 variant P53G (SEQ ID NO:180) (antibody, V domains shown)
VH: EVQLLESGGGLVQPGGSLRLSCAASGFTFSIYPMFWVRQAPGKGLEWVSWIGGSGGITKYADSVKGRFTISRDNSKNTLYLQMNSLRAEDTATYYCAREGHNDWYFDLWGRGTLVTVSS
VL: DIQMTQSPGTLSLSPGERATLSCRASQSVSSYLAWYQQKPGQAPRLLIYDASNRATGIPARFSGSGSGTEFTLTISSLQSEDFAVYYCQQYDKWPLTFGGGTKVEIKR
notes: unchanged chain from WT Li33
B14: Li33 variant I57W (SEQ ID NO:181) (antibody, V domains shown)
VH: EVQLLESGGGLVQPGGSLRLSCAASGFTFSIYPMFWVRQAPGKGLEWVSWIGPSGGWTKYADSVKGRFTISRDNSKNTLYLQMNSLRAEDTATYYCAREGHNDWYFDLWGRGTLVTVSS
VL: DIQMTQSPGTLSLSPGERATLSCRASQSVSSYLAWYQQKPGQAPRLLIYDASNRATGIPARFSGSGSGTEFTLTISSLQSEDFAVYYCQQYDKWPLTFGGGTKVEIKR
notes: unchanged chain from WT Li33
B15: Li33 variant I57P (SEQ ID NO:184) (antibody, V domains shown)
VH: EVQLLESGGGLVQPGGSLRLSCAASGFTFSIYPMFWVRQAPGKGLEWVSWIGPSGGPTKYADSVKGRFTISRDNSKNTLYLQMNSLRAEDTATYYCAREGHNDWYFDLWGRGTLVTVSS
VL: DIQMTQSPGTLSLSPGERATLSCRASQSVSSYLAWYQQKPGQAPRLLIYDASNRATGIPARFSGSGSGTEFTLTISSLQSEDFAVYYCQQYDKWPLTFGGGTKVEIKR
notes: unchanged chain from WT Li33

Tests used:
LINGO-Fc [1] = target: T1, LINGO-Fc (human, UniProt Q96FE5 40-538, limits assumed); test: direct ELISA on LINGO-Fc; OD450 at saturation relative to Li33;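 further: binding to plate-coated LINGO-Fc read by OD450, with the value at maximal saturation divided by the corresponding Li33 value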
T1 construct: not shown: Fc part
T1 sequence: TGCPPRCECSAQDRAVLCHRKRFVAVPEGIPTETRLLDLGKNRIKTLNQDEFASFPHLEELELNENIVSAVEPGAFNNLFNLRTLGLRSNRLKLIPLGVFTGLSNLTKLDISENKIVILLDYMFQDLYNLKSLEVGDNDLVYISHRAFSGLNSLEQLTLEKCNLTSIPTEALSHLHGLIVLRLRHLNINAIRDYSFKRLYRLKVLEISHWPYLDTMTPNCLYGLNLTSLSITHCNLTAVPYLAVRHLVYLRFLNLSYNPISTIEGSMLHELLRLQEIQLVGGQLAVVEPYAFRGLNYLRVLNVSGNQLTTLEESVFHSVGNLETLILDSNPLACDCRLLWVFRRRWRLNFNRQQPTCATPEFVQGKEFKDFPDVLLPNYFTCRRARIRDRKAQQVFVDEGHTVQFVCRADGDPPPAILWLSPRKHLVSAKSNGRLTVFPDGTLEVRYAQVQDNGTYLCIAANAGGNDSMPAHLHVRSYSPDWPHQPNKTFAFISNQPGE

LINGO-Fc [2] = target: T1, LINGO-Fc; test: direct ELISA on LINGO-Fc; half-maximal concentration relative to Li33;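 further: direct binding ELISA on plates coated with LINGO-Fc, concentration giving half of saturating binding, expressed as a ratio to the same value for the comparator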
Description: A direct binding ELISA assay was performed using LINGO-Fc coated plates. The half maximal concentration that gave 50% saturation of binding was measured and is reported as a ratio of the same measurement for Li33. In addition, the OD450 for maximal saturation value was measured and is reported as a ratio of the same measurement for Li33.

Row | Binder | Plateau Ratio (LINGO-Fc [1]) | ELISA Ratio (LINGO-Fc [2])
1 | B1 | 0.91 ratio | 1 ratio
2 | B2 | 1 ratio | 0.7 ratio
3 | B3 | 1.07 ratio | 3.2 ratio
4 | B4 | 1.13 ratio | 2.2 ratio
5 | B5 |  | 0 ratio
6 | B6 | 0.96 ratio | 0.6 ratio
7 | B7 | 1.1 ratio | 2.9 ratio
8 | B8 | 1.13 ratio | 1.4 ratio
9 | B9 | 0.83 ratio | 2 ratio
10 | B10 | 0.91 ratio | 2.3 ratio
11 | B11 | 1.09 ratio | 3.8 ratio
12 | B12 | 1.01 ratio | 1.1 ratio
13 | B13 | 0.83 ratio | 3.1 ratio
14 | B14 |  | 0 ratio
15 | B15 | 1.27 ratio | 0.6 ratio

From patent US20130323786A1 (Biogen, published 2013)
